The data set concerns the molecule itself. In words: circular dichroism of purified D4 in 0.1M sodium phosphate pH 7.0 after two days at 4° C.; self-association into homotrimeric helices. Here is the method: The solution was incubated at 4° C. for two days to allow triple helices to form prior to analysis. Spectra were obtained on an Aviv model 62DS spectropolarimeter (Yale University, Molecular Biophysics and Biochemistry Department). A 1 mm path length quartz suprasil fluorimeter cell was used. Following a 10 min. incubation period at 4° C., standard wavelength spectra were recorded from 260 to 190 nm using 10 sec acquisition times and 0.5 nm scan steps. This spectrum is characterized by a negative ellipticity at 198 nm and a positive ellipticity at 221 nm. The magnitudes of both of these absorbances was greater in neutral pH buffer compared to acidic conditions. […] See, e.g., Venugopal et al., Biochemistry, 33, 7948 (1994). Heating at 85° C. for five minutes prior to obtaining the CD spectrum decreased the magnitude of the absorbance at 198 nm and abolished the absorbance at 221 nm (FIG. 33). This behavior is also typical of the triple helical structure of collagen. See, R. S. Bhatnagar et al., Circular Dichroism and the Conformational Analysis of Biomolecules G. D. Fasman, Ed., supra. A thermal melt profile of D4 conducted as above in phosphate buffer gave a melting temperature of about 29° C. […] (See, A. Rossi, et al., Biochemistry 35, 6048 (1996)).
For orientation: Circular dichroism is the unequal absorption of left and right circularly polarised light.

We go through 1 protein from US6958223 (UNITED STATES SURGICAL, dated 2005).

B1: D4, 219 amino acid C-terminal fragment of human collagen Type I (α1), hydroxyproline-containing (other)
chain: MGPPGLAGPPGESGREGAPGAEGSPGRDGSPGAKGDRGETGPAGPPGAPGAPGAPGPVGPAGKSGDRGETGPAGPAGPVGPAGARGPAGPQGPRGDKGETGEQGDRGIKGHRGFSGLQGPPGPPGSPGEQGPSGASGPAGPRGPPGSAGAPGKDGLNGLPGPIGPPGPRGRTGDAGPVGPPGPPGPPGPPGPPSAGFDFSFLPQPPQEKAHDGGRYYRA
modifications: trans-4-hydroxyproline in place of proline at all proline positions (100% substitution by mass spectrometry and amino acid analysis)
notes: also called D4-α1; protein D4
On to B1, for which the binding result is “binds”.
